Measured values reported in the RNAGym collection of RNA variant scans (doi:10.1073/pnas.2313332121).
This sample holds only a part of the variants without activity.

B1: TPR 5TU (parent)
chain: GGAUCUUCUCGAUCUAACAAAAAAGACAAAUCUGCCACAAAGCUUGAGAGCAUCUUCGGAUGCAGAGGCGGCAGCCUUCGGUGGCGCGAUAGCGCCAACGUUCUCAACUAUGACACGCAAAACGCGUGCUCCGUUGAAUGGAGUUUAUCAUG

Variants of: B1
Assay: polymerase ribozyme fitness, log enrichment relative to wild type (log ratio); higher = more active; in vitro selection for triplet polymerase activity
In short: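 Frozen incubation at −7 °C formed the core of a single, triplicate in vitro selection round applied to PCR-built, transcribed mutant libraries of each subunit of a heterodimeric triplet polymerase ribozyme. Extended constructs were gel-excised, captured with streptavidin beads and amplified by RT-PCR, and input and output libraries were Illumina-sequenced with a filter of ≥10 input reads and ≥1 read per output. Fitness is the logarithm of genotype enrichment relative to wild-type enrichment, with inverse-variance-weighted replicate averaging, and the logarithm is base 2.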

Variant	polymerase ribozyme fitness (log ratio)
G48A G59U C87U A97U G136A	-1.99
A3C U4G A21C C38G A41C G68A G81A C85U C95U C116G	≤ -4.2
U7G U15A A41U A66C G94U C99G G133U U148G	≤ -4.2
C57U C85A A98C	-1.23
A40U C116A	0.309
A17G C51G U55A C57U G92U C103A C108A	≤ -4.2
A16U G42A U53A C85U C96G A120C	≤ -4.2
C8U C54U U56C C85A G92C	≤ -4.2
G94C A97U	-2.45
U13G G68C G84A	≤ -4.2
G65C U90C	≤ -4.2
U7A U9A A21U U55A G59A C99G C129U A147C	≤ -4.2
G50C U53A C57G A73G C93A C95A U101G A107G A138C U144C	≤ -4.2
A19C C79U A98U	-1.81
G42A G58U A64G G68U G92C C95U C129U U134C	≤ -4.2
C54U C114A A137U	-3.59
C27G A37U A40C A64G G81A C95G A138C	-3.88
U55A G126U	-0.31
A64G G86U	≤ -4.2
C116U G141A	-1.01
U56A C96U C116U G143A	-3.36
C85U A89U G126U U145G	-3.94
A52C U55A G59U	0.0736
U15C U55G	0.263

Variant	polymerase ribozyme fitness (log ratio)
U55A U78G G94U C114G	≤ -4.2
U55A C79A A121C	≤ -4.2
A16U A40G U44A G71C C85A G141A G143U	≤ -4.2
G83C C93U	-2.49
U55A C87U U90C A122U	≤ -4.2
U6C A24C G86U U104G C125U	≤ -4.2
G25A C38U C85G	-4.07
A17C A40G G50C C57U C108U G133C	≤ -4.2
C14A A17C A41C C96U A115U G141A	≤ -4.2
U77C	-2.04
C57U G92C A97C U145A	0.369
U56A U127A A138C A142G	-3.48
C14A A52G C85U A113C	-4.15
A17C U61G C85U G126A G140U U151A G152C	≤ -4.2
A30G G141C	-3.51
C85A C114U G143A	≤ -4.2
U31G G42C G50C C57A C79G G80C G136C	≤ -4.2
C99G A147C	-1.47
A16C C18G A22G C27U A52G U61A A73G C85A U127C U139C	≤ -4.2
C8U A12G A28U G74A G81A C99U	-4.18
C5A U13A A24G U82C G100C	≤ -4.2
G59C G68C G70U G140U	≤ -4.2
A37U C54U C93U	-2.44
G84U G126U	-1.45

Variant	polymerase ribozyme fitness (log ratio)
C32U G83U G126A	-4.19
U55A C57A C95U	-0.372
C18A A20U G71C G92C G143U U144G	≤ -4.2
A24U G80C	-4.14
G92U C99U U144G	0.0398
G50U U139C	-3.65
U56A A142U	-0.643
A41C C105A	-2.1
C27U A138G	-3.72
A26U G46U A47U G74C C79G G92U G140A	≤ -4.2
C14A A19U U56G G86U C116G C125U G133A G143C	≤ -4.2
C8A A26U A37C G59A C93U	≤ -4.2
G59A C76A C85A G117A A122C	-2.85
A40C A49U U56A C57A G88C U135A A137U	≤ -4.2
A41C A49U U53A A60C G88U A122U U134A	≤ -4.2
A21C G88A U104G A107U	≤ -4.2
C8U U9G G70A C76A C87G A89C	≤ -4.2
U33A A40C A41U C93G	-3.86
G84A C96G	-0.627
G50U A97U U102A G124A	-2.31
C8U A66C C93U G124A	≤ -4.2
A41C C54A U56A A73U A89U U101G A115C C129G U134A	≤ -4.2
U31G A40G U61A C87U G112U G141C	≤ -4.2
A26C A30C U45A C54G G92A U104G A147G	≤ -4.2

Variant	polymerase ribozyme fitness (log ratio)
A52C A64G C85U U145G	≤ -4.2
G58C C93U	-1.71
C93G A119C	-3.47
C69U A119U	-1.57
G11A A26C C27G C35U C87A G124A	-4.15
A26C U144G	-0.859
A52G G84A C116G	-2.02
A20G A30U G83A A110C U148C	≤ -4.2
G58C U61A G74U U77G C79U G80C C87A	≤ -4.2
C93A U101G U139C G141C	-3.88
A89G G126U U148G	-4.06
C5G G34A C38U C43U G83A	≤ -4.2
U56A U61G A91C U127C U148C A150U	≤ -4.2
C116G G140C	-3.81
G50A A52C G84U A122U G141U	-3.68
A19G U55A G68A G71A C103U	≤ -4.2
U56A A89G C99A	-1.89
A40U C85A U144A	-0.577
G83U C132U	-1.33
A40G C85G U111G U151C	≤ -4.2
U15A G50U C95G C132G	≤ -4.2
C57A G70A G86U C96A C99U U134C U146C	≤ -4.2
U31G U53A C95U U135G	-3.6
G86U G100U	≤ -4.2

Variant	polymerase ribozyme fitness (log ratio)
C43U G58C C95A U102C C103G C105G A110U	≤ -4.2
C54A C63G C69G C76G U82C C131G	≤ -4.2
C72U C93G U130C G133C	≤ -4.2
A29U A41U A47C C114G C132U	≤ -4.2
A29C G74C	≤ -4.2
C8A C18U A20G U45A G59C G62A C76U C114G	≤ -4.2
A60C G88C	≤ -4.2
U90C G94U G124A C125U	-4
U53A U146G	-2.38
A47G G50A C85U C99A G124C U127G	≤ -4.2
C93U A107U	-4.04
C5A A16U G46C G84U A91G U109C A115U G136C	≤ -4.2
A41C C54A A91C U104G U127A G140U U151C	≤ -4.2
C10A C14G U77A C85A G92A A110G A122G	≤ -4.2
U6G A73U	-0.322
C38G G42C U61G G86U	≤ -4.2
C87U G94C	-2.05
A24U U45G G92C	-2.88
C96G U134G	-1.64
G94A C108A A137C	≤ -4.2
C54U C96U U144G	0.217
C57G G59U A64C C103G C116G A137C	≤ -4.2
C5G C8G C85A G126U	≤ -4.2
A41C G83U G124U	-0.893

Variant	polymerase ribozyme fitness (log ratio)
A12G C35A C95U A106U	≤ -4.2
A28G A49G G50A C87G	≤ -4.2
A23C A29C U31G U33C C95U C96U A107U U127C A138C	≤ -4.2
C96A U135C	-1.91
A16G G81A G83A C93U G128C U134G	≤ -4.2
A40G A41G U53G C85A U127G C131U G143A	≤ -4.2
A30G C95U	-3.14
G59A G92U C114A A119U	-3.59
A24U U56A U148A	-3.8
G86U U148A	-3.6
U53A U56C G141U	-0.733
C8G C10A A30C U56A C57G C87U U102G G143C	≤ -4.2
C18U U31G A41G U56A C63U C95U C96G U144C	-2.53
C27A U44A G48A	≤ -4.2
U31A U144A	0.137
C87G C149U	≤ -4.2
A21U G71C C93A	≤ -4.2
G34A C95U G136A	-0.0966
U56G G92U A97U C105U	-1.61
U56A C96U	-0.499
G59A C85G G100A A115U U127G G141A	≤ -4.2
A3U C36U G67U C95A	≤ -4.2
A24C	-3.22
G94A C116G C123G	0.258

Variant	polymerase ribozyme fitness (log ratio)
A47G C99U	0.0144
G94C C116U	-0.0318
C35U U44A A49C G74U G80A U109G A121G	≤ -4.2
G86A C116G A150C	-3.93
C36A G42A U45G G81A C87A A137C	≤ -4.2
C54A G65C C93G	≤ -4.2
U55A U144C	0.176
G46C A52G C63A G71A A110G A113U	≤ -4.2
C14A C95U	-1.38
C87U A106G	-0.549
G58C C96G	-1.88
A3G G84A A98U	-1.36
A89U A97G U134A G141C	-3.84
G46U C72A U90G A97G G100A U104A A107G G124C	≤ -4.2
C8G U61G G81A C87U G92C A121G C132A U144A G152A	≤ -4.2
A17U C93A G94U A121U A150G	≤ -4.2
C69A A73C G84U U109C C118A	≤ -4.2
A47U C54A	-1.93
G58A C87U C93A U130G	≤ -4.2
U31G A52U A60G A98G	-4
C36A U82A U90G A98C	≤ -4.2
C14A G58A G68A U78A G94A	≤ -4.2
U31G U45A A49C G84A A113G A142C	≤ -4.2
